Data on 20 molecules can be found in patent US20200002431A1 (Seagen, published 2020).

T1: human BCMA (B-cell maturation antigen, CD269) expressed on cells (human, UniProt Q02223 1-184)
T1 construct: Endogenous on myeloma lines (NCI-H929, U266, JJN3) or a full-length clone transfected into HEK 293 cells; also called hBCMA; BCMA expressed on NCI-H929 cells
T1 sequence: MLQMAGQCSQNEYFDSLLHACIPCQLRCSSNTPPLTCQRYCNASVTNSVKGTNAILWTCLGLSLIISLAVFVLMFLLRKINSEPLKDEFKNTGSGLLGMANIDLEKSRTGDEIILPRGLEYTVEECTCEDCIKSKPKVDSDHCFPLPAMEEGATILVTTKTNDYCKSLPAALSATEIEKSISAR

B1: hSG16.17 vH3 vK2 (antibody, V domains shown)
VH: QVQLVQSGAEVKKPGASVKLSCKASGYTFTDYYIHWVRQAPGQGLEWIGYINPNSGYTNYAQKFQGRATMTADKSINTAYVELSRLRSDDTAVYFCTRYMWERVTGFFDFWGQGTMVTVSS
VL: DIQMTQSPSSVSASVGDRVTITCLASEDISDDLAWYQQKPGKAPKVLVYTTSSLQSGVPSRFSGSGSGTDFTLTISSLQPEDFATYFCQQTYKFPPTFGGGTKVEIKR
notes: also called hSG16.17 9; VH3 VK2 humanized antibody
B2: hSG16.45 vH1 vK1 (antibody, V domains shown)
VH: EVQLLESGGGLVQPGGSLRLSCAASGFTFNDHWMTWIRQAPGKGLEWISSITNTGGATYYLDSVKGRFTISRDNSKNTLYLQMNSLRAEDTAVYYCTSPGLYFDYWGQGVMVTVSS
VL: EIVLTQSPGTLSASPGERVTISCRASSSVSVMYWYQHKPGQAPRLLIYSTSSLASGVPDRFSGSGSGTDYTLTISRMEPEDFAVYYCHQWSSDPPTFGQGTKLEIKR
notes: also called hSG16.45 1
B3: cSG16.45 (antibody, V domains shown)
VH: EVQLVESGGGLVQPGRSLKLSCVASGFTFNDHWMTWIRQAPGRGLEWISSITNTGGATYYLDSVKGRFTISRDNAKSTLYLQMNSLRSEDTATYYCTSPGLYFDYWGQGVMVTVSS
VL: EIVLTQSPTTTAASPGEKVTITCLATSSVSVMYWYQHKSGASPKLLIYSTSSLASGVPDRFSGSGSGTSYSLTINTMEAEDAATYYCHQWSSDPPTFGSGTKLEIKR
notes: also called chimeric SG16.45
B4: hSG16.45 vH6 vK2 (antibody, V domains shown)
VH: EVQLVESGGGLVQPGRSLRLSCAASGFTFNDHWMTWVRQAPGKGLEWVSGITNTGGATYYADSVKGRFTISRDNAKNSLYLQMNSLRAEDTALYYCTSPGLYFDYWGQGTMVTVSS
VL: EIVLTQSPGTLSLSPGERATLSCRASSSVSVMYWYQQKPGQAPRLLIYSTSSLASGIPDRFSGSGSGTDFTLTISRLEPEDFAVYYCHQWSSDPPTFGQGTKLEIKR
notes: also called hSG16.45 22
B5: hSG16.45 vH6 vK5 (antibody, V domains shown)
VH: EVQLVESGGGLVQPGRSLRLSCAASGFTFNDHWMTWVRQAPGKGLEWVSGITNTGGATYYADSVKGRFTISRDNAKNSLYLQMNSLRAEDTALYYCTSPGLYFDYWGQGTMVTVSS
VL: EIVLTQSPGTLSLSPGERATLSCLATSSVSVMYWYQHKPGQAPRLLIYSTSSLASGIPDRFSGSGSGTDYTLTISRLEPEDFAVYYCHQWSSDPPTFGQGTKLEIKR
notes: also called hSG16.45 24
B6: rat SG16.45 antibody (antibody, V domains shown)
VH: EVQLVESGGGLVQPGRSLKLSCVASGFTFNDHWMTWIRQAPGRGLEWISSITNTGGATYYLDSVKGRFTISRDNAKSTLYLQMNSLRSEDTATYYCTSPGLYFDYWGQGVMVTVSS
VL: EIVLTQSPTTTAASPGEKVTITCLATSSVSVMYWYQHKSGASPKLLIYSTSSLASGVPDRFSGSGSGTSYSLTINTMEAEDAATYYCHQWSSDPPTFGSGTKLEIKR
notes: Rat monoclonal antibody; also called rSG16.45; hybridoma well 45
B7: hSG16.45 vH4 vK3 (antibody, V domains shown)
VH: EVQLLESGGGLVQPGGSLRLSCAASGFTFNDHWMTWVRQAPGKGLEWISSITNTGGATYYADSVKGRFTISRDNSKSTLYLQMNSLRAEDTAVYYCTSPGLYFDYWGQGTMVTVSS
VL: EIVLTQSPGTLSLSPGERATISCRASSSVSVMYWYQHKPGQAPRLLIYSTSSLASGVPDRFSGSGSGTDYTLTISRLEPEDFAVYYCHQWSSDPPTFGQGTKLEIKR
notes: also called hSG16.45 15
B8: hSG16.45 vH1 vK2 (antibody, V domains shown)
VH: EVQLLESGGGLVQPGGSLRLSCAASGFTFNDHWMTWIRQAPGKGLEWISSITNTGGATYYLDSVKGRFTISRDNSKNTLYLQMNSLRAEDTAVYYCTSPGLYFDYWGQGVMVTVSS
VL: EIVLTQSPGTLSLSPGERATLSCRASSSVSVMYWYQQKPGQAPRLLIYSTSSLASGIPDRFSGSGSGTDFTLTISRLEPEDFAVYYCHQWSSDPPTFGQGTKLEIKR
notes: also called hSG16.45 2
B9: hSG16.45 vH4 vK5 (antibody, V domains shown)
VH: EVQLLESGGGLVQPGGSLRLSCAASGFTFNDHWMTWVRQAPGKGLEWISSITNTGGATYYADSVKGRFTISRDNSKSTLYLQMNSLRAEDTAVYYCTSPGLYFDYWGQGTMVTVSS
VL: EIVLTQSPGTLSLSPGERATLSCLATSSVSVMYWYQHKPGQAPRLLIYSTSSLASGIPDRFSGSGSGTDYTLTISRLEPEDFAVYYCHQWSSDPPTFGQGTKLEIKR
notes: also called hSG16.45 16
B10: hSG16.45 vH4 vK1 (antibody, V domains shown)
VH: EVQLLESGGGLVQPGGSLRLSCAASGFTFNDHWMTWVRQAPGKGLEWISSITNTGGATYYADSVKGRFTISRDNSKSTLYLQMNSLRAEDTAVYYCTSPGLYFDYWGQGTMVTVSS
VL: EIVLTQSPGTLSASPGERVTISCRASSSVSVMYWYQHKPGQAPRLLIYSTSSLASGVPDRFSGSGSGTDYTLTISRMEPEDFAVYYCHQWSSDPPTFGQGTKLEIKR
notes: also called hSG16.45 13
B11: hSG16.45 vH5 vK2 (antibody, V domains shown)
VH: EVQLVESGGGLVQPGGSLRLSCAASGFTFNDHWMTWVRQAPGKGLVWVSSITNTGGATYYADSVKGRFTISRDNAKNTLYLQMNSLRAEDTAVYYCTSPGLYFDYWGQGTMVTVSS
VL: EIVLTQSPGTLSLSPGERATLSCRASSSVSVMYWYQQKPGQAPRLLIYSTSSLASGIPDRFSGSGSGTDFTLTISRLEPEDFAVYYCHQWSSDPPTFGQGTKLEIKR
notes: also called hSG16.45 18
B12: hSG16.45 vH1 vK5 (antibody, V domains shown)
VH: EVQLLESGGGLVQPGGSLRLSCAASGFTFNDHWMTWIRQAPGKGLEWISSITNTGGATYYLDSVKGRFTISRDNSKNTLYLQMNSLRAEDTAVYYCTSPGLYFDYWGQGVMVTVSS
VL: EIVLTQSPGTLSLSPGERATLSCLATSSVSVMYWYQHKPGQAPRLLIYSTSSLASGIPDRFSGSGSGTDYTLTISRLEPEDFAVYYCHQWSSDPPTFGQGTKLEIKR
notes: also called hSG16.45 4
B13: hSG16.45 vH1 vK3 (antibody, V domains shown)
VH: EVQLLESGGGLVQPGGSLRLSCAASGFTFNDHWMTWIRQAPGKGLEWISSITNTGGATYYLDSVKGRFTISRDNSKNTLYLQMNSLRAEDTAVYYCTSPGLYFDYWGQGVMVTVSS
VL: EIVLTQSPGTLSLSPGERATISCRASSSVSVMYWYQHKPGQAPRLLIYSTSSLASGVPDRFSGSGSGTDYTLTISRLEPEDFAVYYCHQWSSDPPTFGQGTKLEIKR
notes: also called hSG16.45 3
B14: hSG16.45 vH5 vK5 (antibody, V domains shown)
VH: EVQLVESGGGLVQPGGSLRLSCAASGFTFNDHWMTWVRQAPGKGLVWVSSITNTGGATYYADSVKGRFTISRDNAKNTLYLQMNSLRAEDTAVYYCTSPGLYFDYWGQGTMVTVSS
VL: EIVLTQSPGTLSLSPGERATLSCLATSSVSVMYWYQHKPGQAPRLLIYSTSSLASGIPDRFSGSGSGTDYTLTISRLEPEDFAVYYCHQWSSDPPTFGQGTKLEIKR
notes: also called hSG16.45 20
B15: hSG16.45 vH6 vK1 (antibody, V domains shown)
VH: EVQLVESGGGLVQPGRSLRLSCAASGFTFNDHWMTWVRQAPGKGLEWVSGITNTGGATYYADSVKGRFTISRDNAKNSLYLQMNSLRAEDTALYYCTSPGLYFDYWGQGTMVTVSS
VL: EIVLTQSPGTLSASPGERVTISCRASSSVSVMYWYQHKPGQAPRLLIYSTSSLASGVPDRFSGSGSGTDYTLTISRMEPEDFAVYYCHQWSSDPPTFGQGTKLEIKR
notes: also called hSG16.45 21
B16: hSG16.45 vH3 vK5 (antibody, V domains shown)
VH: EVQLLESGGGLVQPGGSLRLSCAASGFTFNDHWMTWIRQAPGKGLEWISAITNTGGATYYADSVKGRFTISRDNSKSTLYLQMNSLRAEDTAVYYCTSPGLYFDYWGQGVMVTVSS
VL: EIVLTQSPGTLSLSPGERATLSCLATSSVSVMYWYQHKPGQAPRLLIYSTSSLASGIPDRFSGSGSGTDYTLTISRLEPEDFAVYYCHQWSSDPPTFGQGTKLEIKR
notes: also called hSG16.45 12
B17: hSG16.45 vH4 vK2 (antibody, V domains shown)
VH: EVQLLESGGGLVQPGGSLRLSCAASGFTFNDHWMTWVRQAPGKGLEWISSITNTGGATYYADSVKGRFTISRDNSKSTLYLQMNSLRAEDTAVYYCTSPGLYFDYWGQGTMVTVSS
VL: EIVLTQSPGTLSLSPGERATLSCRASSSVSVMYWYQQKPGQAPRLLIYSTSSLASGIPDRFSGSGSGTDFTLTISRLEPEDFAVYYCHQWSSDPPTFGQGTKLEIKR
notes: also called hSG16.45 14
B18: hSG16.45 vH6 vK3 (antibody, V domains shown)
VH: EVQLVESGGGLVQPGRSLRLSCAASGFTFNDHWMTWVRQAPGKGLEWVSGITNTGGATYYADSVKGRFTISRDNAKNSLYLQMNSLRAEDTALYYCTSPGLYFDYWGQGTMVTVSS
VL: EIVLTQSPGTLSLSPGERATISCRASSSVSVMYWYQHKPGQAPRLLIYSTSSLASGVPDRFSGSGSGTDYTLTISRLEPEDFAVYYCHQWSSDPPTFGQGTKLEIKR
notes: also called hSG16.45 23
B19: hSG16.45 vH5 vK1 (antibody, V domains shown)
VH: EVQLVESGGGLVQPGGSLRLSCAASGFTFNDHWMTWVRQAPGKGLVWVSSITNTGGATYYADSVKGRFTISRDNAKNTLYLQMNSLRAEDTAVYYCTSPGLYFDYWGQGTMVTVSS
VL: EIVLTQSPGTLSASPGERVTISCRASSSVSVMYWYQHKPGQAPRLLIYSTSSLASGVPDRFSGSGSGTDYTLTISRMEPEDFAVYYCHQWSSDPPTFGQGTKLEIKR
notes: also called hSG16.45 17
B20: hSG16.45 vH5 vK3 (antibody, V domains shown)
VH: EVQLVESGGGLVQPGGSLRLSCAASGFTFNDHWMTWVRQAPGKGLVWVSSITNTGGATYYADSVKGRFTISRDNAKNTLYLQMNSLRAEDTAVYYCTSPGLYFDYWGQGTMVTVSS
VL: EIVLTQSPGTLSLSPGERATISCRASSSVSVMYWYQHKPGQAPRLLIYSTSSLASGVPDRFSGSGSGTDYTLTISRLEPEDFAVYYCHQWSSDPPTFGQGTKLEIKR
notes: also called hSG16.45 19

The assay has as its target T1, human BCMA (B-cell maturation antigen, …). Kind of assay: cell binding, NCI-H929 cells expressing BCMA, 3-pt assay. The procedure: The six humanized heavy chains and four humanized light chains were tested in all 24 possible permutations for binding to BCMA expressed on NCI-H929 cells, which express about 50,000 molecules of BCMA per cell.
As to B1, the binding result was “binds”.
Turning to B2, the binding result is listed as “binds”.
To B3 belongs “binds”; to B4, “binds”.
As for B5, the binding result is listed as “binds”.
Regarding B6, the binding result is on record as “binds”.
On to B7, for which the binding result is “binds”.
For the molecule B8, the binding result is “binds”.
As for B9, the binding result is given as “binds”.
In the case of B10, the binding result is listed as “binds”.
Under B11 stands “binds”.
To B12 belongs “binds”; to B13, “binds”.
Regarding B14, the binding result is “binds”.
For B15, the binding result is given as “binds”.
As to B16, the binding result is recorded as “binds”.
To B17 belongs “binds”; to B18, “binds”; to B19, “binds”.
With B20, the binding result is listed as “binds”.
